In a protein production outcome set (Wang et al. 2014):

assay: label from the status in PepcDB records

Sequence	protein production
MMSTPALRPYLPEDAAVTAAIFVASIEQLTADDYSEEQQEAWASAADDEAKFAARLSGQLTLIATLQGVPVGFASLKGPDHIDMLYVHPDYVGRDVGTTLIDALEKLAGARGALILTVDASDNAAEFFAKRGYVAKQRNTVSINGEWLANTTMTKSLADSAAPGASS	not failed
MMSVLARMRVMRHRAWQGLVLLVLALLLSSCGWRGISNVAIPGGPGTGPGSYTIYVQMPDTLAINGNSRVMVADVWVGSIRAIKLKNWVATLTLSLKKDVTLPKNATAKIGQTSLLGSQHVELAAPPDPSPVPLKDGDTIPLKRSSAYPTTEQTLASIATLLRGGGLVNLEGIQQEINAIVTGRADQIRAFLGKLDTFTDELNQQRDDITRAIDSTNRLLAYVGGRSEVLNRVLTDLPPLIKHFADKQELLINASDAVGRLSQSADQYLSAARGDLHQDLQALQCPLKELRRAAPYLVGALKLILTQPFDVDTVPQLVRGDYMNLSLTLDLTYSAIDNAFLTGTGFSGALRALEQSFGRDPETMIPDIRYTPNPNDAPGGPLVERGNRQC	failed
MMTCDEIRLPKPPRLQPFLFLLRNDSLSKYSQPPRFDLARILFSLVFITIMIIACFWVVQPFILGFAWACMVVIATWPMLIKFQALLWGRRSLAVLVMTLLLILLFVVPIAVLVSSVIDNSSALMSWGSRQENLSPPTLEWLTSIPLVGEKLFNSWQALLQSGGSGLFAKVQPYFGKTATWLVAQAAHVGRFLMHCSLMLIFSALLYYKGEAVAKAVRHFAIRLGRERGDAAVILAAQSIRAVALGVVVTAIVQSVLGGIGLGLSGIPYTTLLTVLMFLCCLAQLGPLLVLIPAIIWLYWTGDNTWGTILLVWSCVVGTIDNVIRPMLIRMGADLPMLLILSGVIGGLLAFGMIGLFIGPVVLAVSYRLLFAWMREIPEPQNLLSVNTTKTPNKES	failed
MMTITTDRTPPAAGAALDRNRSAYAGLADVLERAGLAEHALYLNWGYRPVDGQPDWAARELPPGELGRMQARLVLEVLGDTPLDGRRVLDVGCGRGGALALMGRLHAPAALAGADISAANIAYCRKRHTHPRLRFQIADACRLPYPDSSMDVVFNLESSGAYPDIGAFFHHVHRILRVGGRFCLADVFDADSVAWVRAALEQAGFTLERERSIPAQVRAARERASPGIWRRLDTALTALDAPGLRRELERYLAAPSSGLFQALEDGRVDYRLFHWRKTCPAAGRIDADVIARLATRSARLDAALQDRAPSAAAPQSPAPGPANASASAWFPFTAPDAQAGFNVFALPYAGGGASVYRAWTLPRRPGAAPWQLCPVQLPGRESRFGEPLIDDMATLADRLADAIGPYAHRPWALLGCSLGCKIAFEVARRFARQGRPPALLFLMACPAPGLPLGRRISTRAEADFAREVCHLGGTPPEVLADAEMMRTLMPILRNDSALAEHYVAAEDATVNVPIVMVAAGDDHLVTVEEARRWQRHAGAGFDWRLVDGGHFFLRQRRRELTDWLLDALRRGERTLPVQTTTTDVPDVPCSTPEQPRDPSRMPAPGASANLVLAPGEILVVTAPRSLAARLTPAVLSDDEQRQLARFAFDADRERYLAAHWAKRRVLGALLAAAPRSLRFGAQAGGKPYLIGEALHFSLSHSGDRVAVAVCRHAPVGVDIEQARGIACHASAARIMHPLDRIAPQCETPEDRFLAAWSLKEAVAKCTGAGLALPFDSLRLAFAGNGRYGCLLGTHAAWEAHHQHEDGVHLAVASATPWAALRILPLDAALAEG	failed
MMTPSRAEKSLTIVIPALNEQDKIADTIDGVLPLARELLDDFEIFLIDDGSTDATGAIMNEFAASDRRITVHHNAERRGVGAGFEYALSRAKFDAITLIPGDHAFQNEGIARMFKAVGAADMVITYRDNQSDRSVNRSIQSHSLRFVLNCMFGFWLSDYHSMIVYPVKWLRQIAVRADGYGYQICALISLLQLGLTYVQVPVSLNAELKGSSRALRLRTYLELIGTIVSLLRRVPIRDVDRDQVPVDAGRTPAR	failed
MMTTAEQIPFQLILNSGNARSFAMEALQFAKQGKMAEADEAMVKAKEAINEAHHFQTELIQSEARGEKTEISVLLIHAQDHLMNAITVKELAAEFIDLYKKLEAKGE	not failed
MMTVVKGLVTFRPMFALVLLSALVGCASAPKKAPPPSSFDATMSRAEAEVTNGGPEQALKTFEDAGRADPTRKEPWVRIAQLQFDRANYARAIVAAQEVLQRDPNDLVADGVLTVAGFRIANQSLQRLQGRGALVSGTARKEAEMLASTLRATMGDDILQPDEPKKRKPVRNARRAAPPAAKDAAPPKQTPNASADPFQNLGGN	failed
MMYFGIIPLILFIIFLISYLKDPRKIINGFLFNAFICFFLLFCVIVSLNSDSDVLRYIIFLPFLALLIMLPFGIVALMFGLFLNARILMKREGRRFTNCLTLLAALGMLFFMLLPIINPASLVSSHLEPIFAAISLISIYFFIHLSNFLSAYFLYQFNRPRRNQDFIIVLGSGLINDKVPPLLASRINKAIDFYWKQAAVNTPPTIIFSGGQGPDEGLPEAEAMQNYAVEKGIPIEHTVQENRSVNTYQNMLFSKEIMDSLKPEGKYKSIFTTNNFHLFRAGIYARQAGLNSQGIGSKTAFYYWPNAMIREYVAIVVMGRKRHMKICGTILGFAVFVSILSFIFS	failed
MNAADRVMQSYGRCCASTGFFDDFYRHFLASSPQIRAKFATTDMTAQKHLLRAGIMNLVMYARGMSDSKLRALGASHSRAALDIRPELYDLWLDALLMAVAEHDRDCDAETRDAWRDVMGRGIAVIKSYY	not failed
MNADTAIRIIEPPPSRGQLLYDGIRSLRKPKPDAAPQLPTERLVRPAVELKADEIARYARACGFRREHGVPLAFPHTLAFPLHLLLLTRPTFPYPASGMVHLANRIRQYQRLEEGQALRLEVFAERWLAHPKGQALSIATRAHSGGSLVWESDSLYLRRGVAGPIGEPWEGSLQWDEQALVRTQRWSLGGDLGRRFAQVSGDFNPIHTSWLGARLFGFRRPIAHGMWTLGRALAAQQPPHPLAAAQLDCEFKLPIFLPAAVTLWNRLPDGPRHEFEVRNNAGDKPHMRGLFIWGAR	failed
MNAGHLKEAAALYAEIVALNPGWEHGTALYSLACCYEDLGELTSAEECYRRALSYEPESPTFIGGLASFLHLHGSQS	failed
MNAIWIAVAAVSLLGLAFGAILGYASRRFAVEDDPVVEKIDEILPQSQCGQCGYPGCRPYAEAISCNGEKINRCAPGGEAVMLKIAELLNVEPQPLDGEAQEITPARMVAVIDENNCIGCTKCIQACPVDAIVGATRAMHTVMSDLCTGCNLCVDPCPTHCISLQPVAETPDSWKWDLNTIPVRIIPVEHHA	failed
MNAKLEVNGELVKESYVYLLSRYLVLRQENFDTKEDKIPYNTLKHNSVAPADANFVNPNFDVVYSEAWIAVDDDNAVILEVPEIKNRYYTVQLLDGWGEVVTNINERNYPDHPYGKFAFVKKGTNPSVPSDAVKIELPSEKVKVLLRVEQKDDPEGAVKLQKAFKFDAPDNIKIKEPLEIPHFTNADFLLEEIYSNLEELLATYPDKMPKAAEFQDKARQVAAYIELGDEQKAEVRNLIVKEAIPYFTDGAKGFGTQKGGWSVTYVAGAFENDILARAIINYGGIWANSIQEALYFIGQQGTDGELLSGDKVYKIHFPKDQLPNGLAEAFWSVTLYGVPDYHVIPNKLNKFSINDYTGPKTNEDGSLSLYIAAEKPADVDPGNWLPSKAGKGFSLNFRLYVPKKEVLEGKVFLPPLEVL	failed
MNALARLRGRKVVPQRSDGELDAMAAAGAVVAAALQAVRAAAVAGVSTLSLDQIAESVIRDAGAVPSFLGYHGYPASICASVNDRVVHGIPSAAEVLAPGDLVSIDCGAVLDGWHGDAAITFGVGALDPADEALCQGTRESLEAGIAAMVPGNRLTDVSHAIELGTRAAETRHGRAFGIVEGYGGHGIGRQMHMDPFLPNEGSPGRGPLLAPGSVLAIEPMLTLGTGKTVVLDDQWTVITTDGSRAAHWEHTVAVTDAGPRILTIG	failed
MNALPSSAEFSRAVGGDAVSREAVIRIEHLSKTFSDAAGPVLDDVSLTIRRGEIHGIIGRSGAGKSTLVRCINLLERPSAGRVIVSGREITSLRGRALRNARRDIGMIFQHFNVLSSHTVAGNVALPFKVAGLPRAEIARRIPPLLELVGLAHKADAYPSELSGGQKQRVGIARALALDPSVLLCDEATSALDPETTDQILALLRDINRKLGLTIVLITHEMHVVRDIATRVAVLDHGRVVEEGATFDVLAFPKSAVARSFLSGLVAHELPPPVAAQLLPAAVPGSDPVLRIVFTGTAAHDPIVADLVSVFGIQPNILHGRIDYVGDRPLGVLTLVAGGAGEKLPAVLSHLSSLGLVVEVIGHAVRSAVARRHSAARLEHHHHHH	failed
MNALRKVGAVAWAAVGSLLLSGCEFNGWYDVQLPGGAAADGHAYHVTVEFRDVLDLVPQSAVKVNNVTVGAVEEVQLDGWHARVRLRVADSVKLPANAVAELRQTSMLGEKYVALSTPPGTAPVGRLGDGDRIPLSRSGRNPDIEEVLSALSALLNGGGVAQLKTITVELNKALDGREDRVRSLLKELNTFIGGLDGRRKDIIHALKAVDRLAGRLGKEKKTIAQAVDTMPPALKVLADQRRDLTRMLTALSKLGTTGTKVVNASHDDTVANLKQLRPILQQLNKAGADLPNSLELLTTYPFPRNAVDAVRGDYVNLDITADLDLSALYRNLAGGSDKSGGGNGESTQPETPDIPDLPDLPTVPTPTALPSAPSLPSSPSMPSAPSGGGGPLCPPVCTSSYTTRGEPPEGIDLALAELMLKGVQP	failed
MNANENVSDDRFAEMVWEAVSGGATLKDVHGIPQDMMEGLYAHAYDFYHKGRLDEAETFFRFLCIYDFYNPDYIMGLAAVCQLKKQFQKAVDLYAVAFALSKNDYRPVFFTGQCQLFMRKAAKARQCFELVCEQSGDESLRDKAQVYLDSLQEAEAEQSRQQEKEQA	failed
MNAPLSHSRPMMQPSEDKSLATVFPFAGRVLDETPMLLGEGPTFDPASGTAWWFNILERELHELHLASGRKTVHALPFMGSALAKISDSKQLIASDDGLFLRDTATGVLTLHAELESDLPGNRSNDGRMHPSGALWIGTMGRKAETGAGSIYHVAKGKVTKLFADISIPNSICFSPDGTTGYFVDTKVNRLMRVPLDARTGLPTGKAEVFIDSTGIKGGMDGSVCDAEGHIWNARWGEGAVDRYDTDGNHIARYEVPGKQTTCPAFIGPDASRLLVTSAREHLDDDAITANPQHGLTFELGIEVKGRFEPLYRL	not failed
MNARLGVSLKILSALCATLMLACVKGLNGAIPTGEVIFFRSFVALFPLLLWLKVQGNILQRIKTKNIFGHLIRGFSGTGGMYFNYLALVYISLADATAISYAAPLFTVLMAAILLKENVHFSRWLAVIVGFCGILIMLSAKLTISNGLFSSGFALDGTALGATFALLAAACAATSNIQIRFLNGVESPGAIVFYFSLMTTLIGLFTLVFGWKMPHGWQWLLLIGCGLFGGIAQILVTLSLRYADASLLAPFDYTTLVWSMVIGYLFLDNLPEYATLMGASVVALAGIFTIWCNRRQRKGHIVRSS	failed
MNAVLVAVAIMLLLSLLRVQVIVAIIVGALTGGLIGGLGISETINTFTTGLGNSAPIALSYAMLGGFAISLSKTGLPDAMIQTALKWIGNEQDTKKQVYSKILILFIILTMACFSQNVIPVHIAFIPILIPALLKVLNELRVDRRLVTCIITFGLITPYMWIPAGFGKIYHDVLQTNAAQSGLTFDVTLIPKAMTIPAIGMIIGLCVAVFITYRKPRTYETEQIHTTENEIVPYTKRSITFGLLSIIATLTVQLTTESMIFGALAGIIVLSVSGSLPLKEADAILTSGMRMMSFIGFVMIAAAGFGAVLRKTGHVESLVQTSAHIIGNNKPLAAFLMLVIGLLVTMGIGSSFSTIPILTTIFVPLCIQLGFSPMATIAIIGTAGALGDAGSPASDSTLGPTSGLNADGQHHHIWDTCVPTFLHYNIPLLIFGFIAAITL	failed
MNDAAVWVPVPAMFYWGWLVPLIFGTIFGWRYHRDKVRLGNGIWFSLFFYSFLTMLAITILGSNIHWLIIISGALFVLLILLIGLIFTLQAFLLLWNAWIMWRHESHTLANMLTLYLGLGILVLPFLGNLLSSHVPQPVSYFLTLFPNLVIFYLGFLFYNYLTMLTIYQFNWPRLRQDYIIVLGDGWAETQSKTTFQNMQFSKQLIAQGPAKNPRTIFVTNKYGRLQI	failed
